The results in this text go back to patent US20160000910A1.

This experiment has as its target biotinylated Aβ1-28 peptide. Briefly: ELISA, biotinylated peptide (Anaspec) on streptavidin plate, 10 µg/ml mAb. The conditions noted are these: remark: other sources report otherwise. (In general: An ELISA detects its analyte on a solid surface through an enzyme-linked reagent.)

biotinylated Aβ1-28 peptide, sequence (chain, as listed by the source): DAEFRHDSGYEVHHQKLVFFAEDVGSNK

B1: mouse monoclonal antibody ACI-11-Ab-9 (antibody, V domains shown)
VL: QAVVTQESALTTSPGGTVILTCRSSTGAVTTSNYANWVQEKPDHLFTGLIGGTSNRAPGVPVRFSGSLIGDKAALTITGAQTEDDAMYFCALWYSTHYVFGGGTKVTVL
VH: QVQLQQSDAELVKPGASVKISCKVSGYTFTDHTIHWMKQRPEQGLEWIGYIYPRDGSTKYNEKFKGKATLTADKSSSTAYMQLNSLTSEDSAVYFCARDYGYAFDYWGQGTTLTVSS
modifications: here or on the partner: biotinylated (position not given)
As to B1, the O.D. after background subtraction (mean) was determined as 0.53 O.D.
